In this experiment the target is SARS-CoV-2 S1 (residues 1-682, Wuhan-Hu-1) (SARS-CoV-2 (Wuhan-Hu-1 strain), UniProt P0DTC2 14-682). Nature of the experiment: BLI. (In general: Biolayer interferometry detects binding as a change in optical thickness at a sensor tip.)

B1: 87G7 human monoclonal antibody (recombinant human IgG1/kappa) (antibody, V domains shown)
VH: EVQLLESGGGLVQPGGSLRLSCVASGFTFSSYVMSWVRQAPGKGLEWVAAISGSGGNTYYADSVKGRFTISRDNSKNTLYLQMNSLRAEDTAVYYCAKEGTYYYGSGSFWGQGTLVTVSS
VL: EIVLTQSPATLSLSPGERATLSCRASQSFHNYLAWYQQKPGRAPRLLIFDASNRATGIPARFSGSGSGTDFTLTISSLEPEDFAVYYCQQRFNWPLTFGGGTKVEIK
Regarding B1, the equilibrium dissociation constant (Kd) – broadly, the concentration at which binding is half-saturated – came out at 2.89 nM.

The values above are taken from publication PMC9097884 (2022).
